According to patent US20240067748A1 (NONA BIOSCIENCES SUZHOU, published 2024):
Substitutions are numbered along the chain they refer to.

T1: human Trop2 on cells (human, UniProt P09758 27-323)
T1 construct: whole, on cells; also called hTrop2; 293T-human Trop2 cells
T1 sequence (looked up): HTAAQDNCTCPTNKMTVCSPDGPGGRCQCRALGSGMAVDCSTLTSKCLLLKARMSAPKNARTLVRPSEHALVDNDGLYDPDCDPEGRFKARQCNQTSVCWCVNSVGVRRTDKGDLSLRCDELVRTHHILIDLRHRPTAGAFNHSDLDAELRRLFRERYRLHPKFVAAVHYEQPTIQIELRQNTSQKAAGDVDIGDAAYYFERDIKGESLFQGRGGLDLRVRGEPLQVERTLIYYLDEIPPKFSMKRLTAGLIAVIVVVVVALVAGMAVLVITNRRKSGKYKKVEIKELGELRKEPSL

T2: human TROP2 protein (Sino Biological, #10428-H08H) (human, UniProt P09758 27-274)
T2 construct: bought protein; also called human Trop2 protein antigen (His tag); not shown: His tag
T2 sequence (looked up): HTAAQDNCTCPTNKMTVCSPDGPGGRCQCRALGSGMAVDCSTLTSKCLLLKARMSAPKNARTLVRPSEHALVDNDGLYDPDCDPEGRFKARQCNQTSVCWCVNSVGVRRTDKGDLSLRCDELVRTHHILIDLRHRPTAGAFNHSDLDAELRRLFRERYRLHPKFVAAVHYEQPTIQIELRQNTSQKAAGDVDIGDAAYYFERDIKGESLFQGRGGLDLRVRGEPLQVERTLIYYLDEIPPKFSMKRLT

T3: monkey Trop2 protein (Sino Biological, #90893-C08H) (monkey, UniProt A0A2K5UE71 27-274)
T3 construct: bought protein; also called monkey Trop2 protein antigen (His tag)
T3 sequence: T2 sequence (looked up) with M36V, K46E, S67N, I204V

T4: monkey Trop2 on CHO-K1 cells (monkey, UniProt A0A2K5UE71 27-323)
T4 construct: also called CHO-K1/monkey Trop2
T4 sequence: T1 sequence (looked up) with M36V, K46E, S67N, I204V, M266V, T272S

B1: comparative example 2 antibody Tab (hRS7) (antibody, human IgG1, kappa, V domains shown)
VH: QVQLQQSGSELKKPGASVKVSCKASGYTFTNYGMNWVKQAPGQGLKWMGWINTYTGEPTYTDDFKGRFAFSLDTSVSTAYLQISSLKADDTAVYFCARGGFGSSYWYFDVWGQGSLVTVSS
VL: DIQLTQSPSSLSASVGDRVSITCKASQDVSIAVAWYQQKPGKAPKLLIYSASYRYTGVPDRFSGSGSGTDFTLTISSLQPEDFAVYYCQQHYITPLTFGAGTKVEIKR
notes: prepared on the basis of sacituzumab govitecan (ChemPartner, #T07-001); naked antibody
B2: PR001165 (antibody, human IgG1, kappa, V domains shown)
VH: QVQLVESGGGVVQPGRSLRLSCEASGFTFSHYGMHWVRQAPGKGLEWVAVIWYDGIKTYYVESVKGRFTISRDNSKNTLNLQMNRLRAEDTAVYYCARDGGFGESNYYGLDVWGQGTTVTVSS
VL: DIQLTQSPSFLSASVGDRVTITCRASQGISSYLGWYQQKPGKAPKLLIYIASTLQSGVPSRFSGSGSGTEFTLTISSLQPEDFATYYCQQLNSYPYTFGQGTKLEIKR
notes: fully human IgG1/kappa; also called antibody No. (26)
B3: PR001142 (antibody, human IgG1, kappa, V domains shown)
VH: QVQLQESGPGLVKPSGTLSLTCAVSGDSISSNNWWSWVRQPPGKGLEWIGEIYPGGNPNYNPSLKSRVTISVDKSKNQFSLKLNSVTAADTAVYYCARGSGVISYFDYWGQGTLVTVSS
VL: DIQMTQSPSTLSASVGDRVTITCRASQSIGHWLAWYQQKPGKAPKLLIYKASSLESGVPSRFRGSGSGTEFTLTISSLQPDDFATYYCQQYSSYSPITFGQGSRLEIKR
notes: fully human IgG1/kappa; also called antibody No. (9)
B4: PR001166 (antibody, human IgG1, kappa, V domains shown)
VH: QVQLQESGPGLVKPSETLSLTCAVSGYSISSGYFWAWIRQPPGKGLEWIGSIYHSGRTHYNPSLKSRVIISLDTSKNQFSLKLRSVTAADSAVYYCAREGYASGSYYWGQGTLVTVSS
VL: EIVMTQSPATLSVSPGERATLSCRSSQSVNNYLAWFQQKPGQAPRLLIYDSSTRATGIPARFSGSGSGTEFTLTISSLQSEDFAFYFCQQYENWPLTFGGGTKVEIKR
notes: fully human IgG1/kappa; also called antibody No. (27)

The binders below were run against T1, human Trop2 on cells (assay: flow cytometry on BxPC-3 tumor cells (second panel of the table)).
Protocol: BxPC-3 tumor cells (the Cell Bank of the Chinese Academy of Sciences, #TCHu 12) were digested with 3 mL of TrypLE, and the digestion was stopped with 7 mL of the corresponding medium. […] The cell solution was centrifuged, and the cells were washed once with PBS+[…] buffer. […] The cells were washed once with PBS+0.50% BSA. The cells were incubated at 4° C. for 1 h in the dark with 100 μL of Alexa Fluor 488 goat anti-human IgG (Life technologies, #A-11013) diluted at 1:1000, and washed twice with PBS+0.50% BSA. The cells were resuspended in 200 μL of PBS+0.50% BSA. The suspension was centrifuged at 4° C. for 5 min at 2000 rpm and tested using a FACS verse flow cytometer or NovoCyte flow cytometer (ACEA Biosciences). All procedures were performed on ice.

| EC50 [nM] | Binder |
| --- | --- |
| 2.67 | B1 |
| 1.71 | B2 |

These binders were tested against T2, human TROP2 protein (Sino Biological, …) (assay: SPR, Biacore T200, antigen immobilised on CM5 chip).
Protocol: (§1) HBS-EP+ (10 mM HEPES, 150 mM NaCl, 3 mM EDTA, and 0.05% P20, pH 7.4, GE Healthcare, BR-1001-88) was used as a running buffer throughout the test. […] Data were analyzed using Biacore T200 (GE Healthcare, T200 model, #BIAC-B20-03) Evaluation 3.1 software.

| Kd [nM] | koff [s⁻¹] | kon [M⁻¹ s⁻¹] | Binder |
| --- | --- | --- | --- |
| 0.601 | – | – | B1 |
| 0.53 | 0.000252 | 475000 | B3 |
| 0.495 | 0.000152 | 307000 | B2 |
| 0.0279 | 5.78e-05 | 2.07e+06 | B4 |

The binders below were run against T3, monkey Trop2 protein (Sino Biological, …) (assay: SPR, Biacore T200, antigen immobilised on CM5 chip).
Protocol: as §1

| Kd [nM] | koff [s⁻¹] | kon [M⁻¹ s⁻¹] | Binder |
| --- | --- | --- | --- |
| 0.619 | – | – | B1 |
| 0.374 | 0.000179 | 479000 | B3 |
| 0.491 | 0.000125 | 255000 | B2 |
| 0.0856 | 0.000137 | 1.59e+06 | B4 |

These binders were tested against T4, monkey Trop2 on CHO-K1 cells (assay: flow cytometry on CHO-K1/monkey Trop2 cells (second run)).
Protocol: CHO-K1/monkey Trop2 cells (Chempartner, Shanghai, China) and CHO-K1 blast cells were each digested with 3 mL of TrypLE, and the digestion was stopped with 7 mL of the corresponding medium. […] The cell solution was centrifuged, and the cells were washed once with PBS+0.5% BSA. […] The cells were washed once with PBS+0.5% BSA. The cells were incubated at 4° C. for 1 h in the dark with 100 μL of Alexa Fluor 488 goat anti-human IgG (Life technologies, #A-11013) diluted at 1:1000, and washed twice with PBS+0.5% BSA. The cells were resuspended in 200 μL of PBS+0.5% BSA. The suspension was centrifuged at 4° C. for 5 min at 2000 rpm and tested using a FACS verse flow cytometer or NovoCyte flow cytometer (ACEA Biosciences). All procedures were performed on ice.

| EC50 [nM] | Binder |
| --- | --- |
| 1.3 | B1 |
| 1.8 | B2 |

These binders were tested against T2, human TROP2 protein (Sino Biological, …) (assay: BLI epitope binning (Octet), biotinylated human Trop2 on SA sensor; row = primary antibody; competitor (secondary antibody, column): PR001166).
Protocol: The biotinylated mixture after the incubation was washed three times with PBS and a Zeba centrifugal desalting column (Thermo Fisher, #89882) to remove excess biotin. The biotinylated Trop2 protein was captured by an SA sensor (Pall ForteBio, #18-5019) with the loading baseline set at 0.3 nm. The sensor was immersed in a well of assay buffer containing 50 nM primary antibody for 300 s. […] The binding assay was performed by comparing the binding of the secondary antibody to Trop2 in the presence of the primary antibody to the blocking of the primary antibody itself.

| Inhibition rate (%) | Binder |
| --- | --- |
| 7.34 | B1 |
| 85.5 | B3 |
| 5.24 | B2 |
| 102 | B4 |

The binders below were run against T1, human Trop2 on cells (assay: cell-based or functional assay).

| ADCC (donor 1152#) EC50(nM), BxPC-3 + PBMC, LDH release [nM] | ADCC (donor 2153#) EC50(nM), BxPC-3 + PBMC, LDH release [nM] | Binder | ADCC (donor 1152#) Maximum cell killing % [%] | ADCC (donor 1152#) Minimum cell killing % [%] | ADCC (donor 2153#) Maximum cell killing % [%] | ADCC (donor 2153#) Minimum cell killing % [%] |
| --- | --- | --- | --- | --- | --- | --- |
| 0.0391 | 0.08 | B1 | 42.1 | 4.32 | 62.6 | 10.2 |
| 0.0279 | 0.0547 | B3 | 41.6 | 4.47 | 58.8 | 9.28 |
| 0.0324 | 0.0616 | B2 | 39 | 5.79 | 70.8 | 14 |
| 0.02 | 0.0347 | B4 | 36.5 | 3.25 | 69.1 | 11.9 |
